The source of these data is patent US20220403048A1, “BINDING MOLECULES TO ARGINASE II [ARG2]” (Cancer Research Technology Limited, priority 2019, published 2022).

Some results are limits rather than exact numbers.

The target in one test is T1, ARG2 (Homo sapiens, UniProt P78540).
T1 sequence (P78540 23-354): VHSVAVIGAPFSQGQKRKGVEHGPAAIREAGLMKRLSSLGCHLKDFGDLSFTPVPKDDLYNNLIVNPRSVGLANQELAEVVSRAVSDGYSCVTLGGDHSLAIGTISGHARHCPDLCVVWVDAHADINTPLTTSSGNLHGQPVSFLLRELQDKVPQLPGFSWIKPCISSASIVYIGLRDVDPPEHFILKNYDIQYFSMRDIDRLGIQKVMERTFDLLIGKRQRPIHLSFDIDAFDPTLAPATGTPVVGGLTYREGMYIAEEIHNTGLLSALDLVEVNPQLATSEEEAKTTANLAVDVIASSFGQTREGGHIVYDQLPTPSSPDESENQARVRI
Briefly: T cell proliferation assay (BrdU, 96 hours) with exogenous ARG2, improved variant IgGs. In kind it is cell-based. The settings on record: In Absence of rhARG2, hIgG1. How it is done: This assay served to provide evidence of improved functional efficacy for each affinity-matured antibody in comparison to the parent IgG, C0020187 (FIG. 12).
Lead optimisation clones were tested to an endpoint treatment time of 96 hours and the BrdU Cell Proliferation Kit (Roche, France; Cat: 11647229001) was used according to the manufacturer's instructions. R347 was used as the irrelevant control. All clones tested n=2.
Leukocyte cones underwent Ficoll Plaque (GE, Sweden; Cat: 17-1440-02) gradient separation, PBMC's were extracted and pan T cell population isolated by negative selection using the Human T Cell Enrichment Kit (Stemcell Technologies, France; Cat: 19051) according to the manufacturer's instructions.
40000 cells/well were seeded in complete growth media (RMPI 1640, 5% Human Serum Albumin) into a 96 well clear TC treated microplate (Greiner-Bio One, Germany; Cat: 655180). T cells were activated by the addition of ImmunoCult CD3/CD28 (Stemcell Technologies, France; Cat: 10971) at a dilution of 1:40 directly into wells and the plate incubated 37° C., 5% CO2 for 45 minutes.
To determine EC50's of test antibodies, a dilution series was created in sterile TBS/NaCl Buffer at 10× the final assay concentration added to the assay plate containing cells. Plate was incubated for 30 minutes at 37° C., 5% CO2.
ARG2 was added to relevant wells of the plate at a final concentration of 15 μg/ml. The equivalent volume of ARG2 vehicle and test antibody vehicle was added to relevant control wells. The total volume in each well was 200 μl. Cells were treated with test antibodies for a total of 96 hours at 37° C., 5% CO2. Antibodies were tested alongside C0020187 (parent IgG) as a positive control and R347 (irrelevant isotype control antibody) as a negative control.
Assessment of T cell proliferation was performed using the BrdU Cell Proliferation ELISA Kit (Roche, Germany; Cat: 000000011647229001). BrdU labelling reagent was added after 78 hours of antibody treatment and the plate further incubated for 18 hours at 37° C., 5% CO2. The remainder of the assay was performed according to the manufacturer's instructions.
Calculated data was expressed as % of control (Equation 3) and graphical plots were constructed using a four parameter fit and EC50's determined using model 205 in XLFit (IDBS, UK).
All test sample data was corrected for background (mean of no cell control)
% Control=100*((Test Sample−Mean Positive Control)/(Mean Negative Control−Mean Positive Control)) Equation 3:
Mean Positive Control=T Cells in absence of ARG2
Mean Negative Control=T Cells in presence of ARG2
This assay served to provide evidence of improved functional efficacy for each affinity-matured antibody in comparison to the parent IgG, C0020187 (FIG. 14, Table 19). R347 was used as the irrelevant control. All clones tested n=2. Reference section 2.9 for methodology.

Another test deals with cynomolgus ARG2. Briefly: Bio-Layer Interferometry (OctetRED) binding kinetics, cynomolgus ARG2. The settings on record: cyno ARG2 ligand. An excerpt:
The OctetRED (Pall ForteBio) instrument was used to assess the kinetic parameters of the interactions between C0020187 and recombinantly produced human ARG2, cynomolgus ARG2 and human ARG1. The Octet biosensor uses an optical analytical technique that analyses the interference pattern of white light reflected from two surfaces: a layer of immobilised protein on the sensor tip, and an internal reference layer. Any changes in binding at the biosensor tip result in a shift in interference pattern, which can be measured in real time. Molecules associating with or dissociating from ligands at the biosensor tip shift the interference pattern and generate a response on the Octet system which is recorded by the acquisition software.
Typically, a defined concentration of the analyte species is brought into contact with the coupled ligand and any binding is detected as an increased in signal (association phase). This is followed by a period of buffer rinse, during which dissociation of the analyte species from the surface immobilised ligand can be observed as a decrease in signal (dissociation phase). Repetition of this with a range of analyte concentrations provides data for the analysis of binding kinetics.
An Octet Kinetics Buffer (PBS containing 0.01% BSA and 0.002% Tween20) is typically used as the diluent buffer for the analyte samples and as the flow buffer during the dissociation phase. The experimental data is recorded over time as shift in interference pattern (nm) over time, which is directly proportional to the optical thickness at the biosensor tip, which in turn is an approximate measure of the mass of analyte bound. The proprietary Octet Data Analysis software package can then be used to process data and fit binding models to the data sets. Returned association (ka, M^−1 s^−1) and dissociation (kd, s^−1) rate constants allow calculation of dissociation (KD, M) affinity constants.
The affinity of binding between the Fab of C0020187 and human ARG2, cynomolgus ARG2 and human ARG1 was estimated using assays in which the biotinylated ARG antigen was captured on a streptavidin sensor tip. A fresh sensor tip was used for each measurement and no regeneration was used. A series of dilutions of the C0020187 Fab (3.25-240 nM) were individually placed in contact with the ligand surface for a sufficient amount of time to observe sensorgrams that could be fitted to an appropriate binding model with confidence (typically 5 minutes), followed by an appropriate length of dissociation time (typically 10 minutes). Blank reference (0 nM Fab) data were subtracted from each dataset to reduce the impact of any buffer artefacts or non-specific binding effects. An appropriate binding model was then fitted simultaneously to the data from each analyte titration using the Octet Evaluation software.
Example results for C0020187 are shown in Table 9, showing the association rate constants (ka), dissociation rate constants (kd) and dissociation constants (KD). These parameters were derived from a 1:1 binding fit to the data.
The affinities of the affinity-matured antibodies to human ARG2 were measured on the OctetRED system as described in section 1.15 using the streptavidin capture method. Typically, an analyte titration range of 1.8 to 120 nM was used.
The affinities of some of these antibodies to cynomolgus ARG2 were determined using the same assay, and the derived kinetic parameters are shown in Table 21.
(In general: In BLI a coated tip is dipped into the sample, and binding shifts an interference pattern.)

The mark [1] stands for this setting: second-generation Fab, same extended assay.
[2] abbreviates: Fab as analyte, affinity-matured antibodies.

cynomolgus ARG2, sequence (as listed by the source): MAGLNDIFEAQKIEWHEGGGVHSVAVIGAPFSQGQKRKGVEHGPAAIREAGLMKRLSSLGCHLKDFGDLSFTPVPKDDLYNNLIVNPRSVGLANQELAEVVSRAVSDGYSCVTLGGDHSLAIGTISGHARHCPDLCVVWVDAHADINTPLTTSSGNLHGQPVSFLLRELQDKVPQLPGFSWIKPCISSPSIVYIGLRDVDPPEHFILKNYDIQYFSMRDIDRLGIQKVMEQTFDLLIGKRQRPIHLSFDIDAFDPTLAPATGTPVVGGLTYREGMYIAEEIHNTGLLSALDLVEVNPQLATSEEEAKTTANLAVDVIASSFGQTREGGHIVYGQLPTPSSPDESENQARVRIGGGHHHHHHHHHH

B1: C0021177: anti-ARG2 antibody, VH SEQ ID NO: 322, VL SEQ ID NO: 327 (antibody, listed as Homo sapiens, V domains shown)
VH: EVQLLESGGGLVQPGGSLRLSCAASGFTFRYEVAAWVRQAPGKGLEWVSAISGPAPKGYYADSVKGRFTISRDNSKNTLYLQMNSLRAEDTAVYYCARLRADLGLYMDLWGRGTLVTVSS
VL: QSELTQPPTASAAPGQKVTISCSGSSSNIGNHYVSWYQQLPGTAPKLLIYDTTVLSSGIPDRFSGSKSGTSATLGITGLQTGDEADYYCGTWDELTSNLVFGGGTKLTVL
modifications: C0021177
By EC50 is commonly meant the midpoint of the concentration-response curve. Read a low EC50 as an effect from little substance. On to B1, for which, in the test with ARG2 (top conc 2 μM, n=2), the concentration for a half-maximal effect (EC50) was less than 0.9 nM and the “Maximum % Proliferation” value turned out to be 90%. Further, in the test with cynomolgus ARG2 (setting [1]), the ka was 414000 M⁻¹ s⁻¹ and the kd was determined as 3.12e-05 s⁻¹.

B2: C0021180: anti-ARG2 antibody, VH SEQ ID NO: 332, VL SEQ ID NO: 337 (antibody, listed as Homo sapiens, V domains shown)
VH: EVQLLESGGGLVQPGGSLRLSCAASGFTFRYEVAAWVRQAPGKGLEWVSAISGPIPKGYYADSVKGRFTISRDNSKNTLYLQMNSLRAEDTAVYYCARLRADLGLYMDLWGRGTLVTVSS
VL: QSVLTQPPTVSAAPGRKVTISCSGSSSNIGDHHVSWYQQLPGAAPKLLIYDTDHMASGIPDRFSGSRSGTSATLGITGLQTGDEADYYCGTWDSSLSALVFGGGTKLTVL
modifications: C0021180
Take B2: in the test with ARG2 (top conc 2 μM, n=2), the 50% effective concentration (EC50) was less than 0.9 nM and the “Maximum % Proliferation” value is reported as 96%. In the test with cynomolgus ARG2 (setting [1]), this molecule displayed a ka of 381000 M⁻¹ s⁻¹ and a kd of 0.000135 s⁻¹.

B3: C0021022: anti-ARG2 antibody, VH SEQ ID NO: 42, VL SEQ ID NO: 47 (antibody, listed as Homo sapiens, V domains shown)
VH: EVQLLESGGGLVQPGGSLRLSCAASGFTFSSYAMSWVRQAPGKGPEWVSAISGFSPYYADSVKGRFTISRDNSKNTLYLQMNSLRAEDTAVYYCARLRADLGLYMDLWGRGTLVTVSS
VL: QSVLTQPPSVSAAPGQKVTISCSGSSSNIGNHYVSWYQQLPGTAPKLLIYDNSERPSGIPDRFSGSKSGTSATLGITGLQTGDEADYYCGTWDSSLSALVFGGGTKLTVL
modifications: C0021022
Turning to B3, in the test with ARG2 (96 hours), the EC50 is less than 1 nM. In the test with cynomolgus ARG2 (setting [2]), the ka turned out to be 706000 M⁻¹ s⁻¹ and the kd was 0.00117 s⁻¹.

B4: C0021065: anti-ARG2 antibody, VH SEQ ID NO: 72, VL SEQ ID NO: 77 (antibody, listed as Homo sapiens, V domains shown)
VH: EVQLLESGGGLVQPGGSLRLSCAASGFTFSSYAMSWVRQAPGKGPEWVSAISGFSPYYADSVKGRFTISRDNSRNTLYLQMNSLRAEDTAVYYCARLRADLGLYMDLWGRGTLVTVSS
VL: QSVLTQPPSVSAAPGQKVTISCSGSSSNIGNHYVSWYQQLPGTAPKLLIYDTDHMASGIPDRFSGSKSGTSATLGITGLQTGDEADYYCGTWDSSLSALVFGGGTKLTVL
modifications: C0021065
As for B4, in the test with ARG2 (96 hours), the EC50 was less than 0.9 nM and the “Maximum % Proliferation” value is 101%. In the test with cynomolgus ARG2 (setting [2]), this molecule yielded a ka of 617000 M⁻¹ s⁻¹ and a kd of 0.000782 s⁻¹.
